{"source": "patent US20090098112A1", "about": "(Genentech, published 2009)"}
{"molecular_target": "T1, recombinant human integrin α5β1 (R&D) (human, UniProt P08648 42-995; P05556 21-728)", "T1 construct": "Bought recombinant heterodimer (R&D); It was used coated on plates and in solution in the phage ELISA, and as analyte or immobilized in BIAcore; also called alpha5beta1; a5b1", "T1 sequence (P08648 42-995 limits assumed, chain 1 of 2)": "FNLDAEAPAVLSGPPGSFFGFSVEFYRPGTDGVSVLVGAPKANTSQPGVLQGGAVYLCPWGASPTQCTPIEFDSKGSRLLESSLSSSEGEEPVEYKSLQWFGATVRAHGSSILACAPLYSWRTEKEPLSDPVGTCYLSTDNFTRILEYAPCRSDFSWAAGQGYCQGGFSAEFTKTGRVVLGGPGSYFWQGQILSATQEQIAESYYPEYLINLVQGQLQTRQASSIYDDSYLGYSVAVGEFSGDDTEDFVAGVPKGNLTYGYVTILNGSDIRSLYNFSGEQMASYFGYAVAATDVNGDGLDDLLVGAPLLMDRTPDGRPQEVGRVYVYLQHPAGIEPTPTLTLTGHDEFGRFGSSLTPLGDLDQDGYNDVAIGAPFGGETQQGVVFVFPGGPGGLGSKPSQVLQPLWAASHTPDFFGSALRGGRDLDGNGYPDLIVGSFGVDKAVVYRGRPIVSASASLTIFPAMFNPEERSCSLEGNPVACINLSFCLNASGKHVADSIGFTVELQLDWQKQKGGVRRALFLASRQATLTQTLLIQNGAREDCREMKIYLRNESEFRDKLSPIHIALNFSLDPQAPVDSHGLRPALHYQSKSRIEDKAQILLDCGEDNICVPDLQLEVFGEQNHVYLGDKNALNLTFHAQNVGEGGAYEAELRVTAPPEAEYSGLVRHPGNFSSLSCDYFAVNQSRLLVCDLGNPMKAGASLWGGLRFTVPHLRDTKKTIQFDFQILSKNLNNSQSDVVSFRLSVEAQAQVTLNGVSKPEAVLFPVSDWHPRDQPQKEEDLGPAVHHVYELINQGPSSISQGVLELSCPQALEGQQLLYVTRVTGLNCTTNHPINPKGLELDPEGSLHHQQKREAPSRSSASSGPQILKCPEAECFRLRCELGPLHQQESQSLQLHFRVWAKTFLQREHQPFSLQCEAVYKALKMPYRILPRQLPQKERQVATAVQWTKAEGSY", "T1 sequence (P05556 21-728 limits assumed, chain 2 of 2)": "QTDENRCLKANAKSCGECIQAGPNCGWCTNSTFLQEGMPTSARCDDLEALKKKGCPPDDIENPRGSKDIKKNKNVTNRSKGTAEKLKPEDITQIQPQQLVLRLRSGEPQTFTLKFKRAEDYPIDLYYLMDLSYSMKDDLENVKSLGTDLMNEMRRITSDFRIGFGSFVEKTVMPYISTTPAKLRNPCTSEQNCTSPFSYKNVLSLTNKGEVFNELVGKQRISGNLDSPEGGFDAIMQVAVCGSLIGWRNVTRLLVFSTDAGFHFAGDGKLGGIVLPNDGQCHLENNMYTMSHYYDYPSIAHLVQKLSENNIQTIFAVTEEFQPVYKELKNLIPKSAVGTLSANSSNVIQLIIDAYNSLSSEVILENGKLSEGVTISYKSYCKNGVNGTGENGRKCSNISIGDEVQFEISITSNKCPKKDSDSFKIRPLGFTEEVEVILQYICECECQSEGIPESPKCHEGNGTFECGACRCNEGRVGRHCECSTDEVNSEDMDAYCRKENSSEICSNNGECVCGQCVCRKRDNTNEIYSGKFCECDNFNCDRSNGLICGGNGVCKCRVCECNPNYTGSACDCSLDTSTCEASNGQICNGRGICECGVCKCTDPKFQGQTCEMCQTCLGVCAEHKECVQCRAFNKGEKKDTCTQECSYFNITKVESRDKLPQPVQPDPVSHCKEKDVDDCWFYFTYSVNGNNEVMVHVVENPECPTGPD", "test": "phage competition ELISA: Fab-phage incubated with serially diluted soluble human integrin α5β1, unbound phage captured on plate-coated integrin α5β1, anti-M13-HRP, A450", "experimental": "Mutation at each position was generated by Kunkel mutagenesis using a separate oligonucleotide. Phage competition ELISA was utilized for evaluating all of the variants. […] Binding affinities (IC50) against human integrin α5β1 was determined.\n(§1) MAXISORP™ microtiter plates were coated with recombinant human integrin α5β1 (R&D) at 5 μg/ml in PBS overnight and then blocked with PBST buffer (0.5% BSA and 0.05% Tween 20 in PBS) for an hour at room temperature. Phage from culture supernatants were incubated with serially diluted human integrin α5β1 in PBST buffer in a tissue-culture microtiter plate for an hour, after which 80 μl of the mixture was transferred to the target-coated wells for 15 minutes to capture unbound phage. The plate was washed with PBT buffer (0.05% Tween 20 in PBS), and HRP-conjugated anti-M13 (Amersham Pharmacia Biotech) was added (1:5000 in PBST buffer) for 40 minutes. The plate was washed with PBT buffer and developed by adding tetramethylbenzidine substrate (Kirkegaard and Perry Laboratories, Gaithersburg, Md.). The absorbance at 450 nm was plotted as a function of target concentration in solution to determine phage IC₅₀.", "units": {"IC50 (read off the curve)": "nM"}}
{"binder": "CDR-L1:N28A (Fab, part only; not given: VH end, constant domains, phage fusion, V domains shown, not shown: another chain or arm of the molecule; large carriers) VL: DIQMTQSPSSLSASVGDRVTITCKASQAVGSDVAWYQQKPGKAPKTLIYSTSYRYSGVPSRFSGSGSGTDFTLTISSLQPEDFATYYCQQYNSYPFTFGQGTKVEIK VH: EVQLVESGGGLVQPGGSLRLSCAASGYTFTDYYLYWVRQAPGKGLEWIGGISPSNGGTTFNDNFENKATLSVDKSKNTAYLQMNSLRAEDTAVYYCTRDAYGDWYFDVWGQGT", "IC50 (read off the curve)": 0.2}
{"binder": "h7H5.v1 (Fab, part only; not given: VH end, constant domains, phage fusion, V domains shown, not shown: another chain or arm of the molecule; large carriers) VL: DIQMTQSPSSLSASVGDRVTITCKASQNVGSDVAWYQQKPGKAPKTLIYSTSYRYSGVPSRFSGSGSGTDFTLTISSLQPEDFATYYCQQYNSYPFTFGQGTKVEIK VH: EVQLVESGGGLVQPGGSLRLSCAASGYTFTDYYLYWVRQAPGKGLEWIGGISPSNGGTTFNDNFENKATLSVDKSKNTAYLQMNSLRAEDTAVYYCTRDAYGDWYFDVWGQGT", "IC50 (read off the curve)": 0.05}
{"binder": "HC:A78L (Fab, part only; not given: VH end, constant domains, phage fusion, V domains shown, not shown: another chain or arm of the molecule; large carriers) VL: DIQMTQSPSSLSASVGDRVTITCKASQSVGSDVAWYQQKPGKAPKTLIYSTSYRYSGVPSRFSGSGSGTDFTLTISSLQPEDFATYYCQQYSSYPFTFGQGTKVEIK VH: EVQLVESGGGLVQPGGSLRLSCAASGYTFTDYYLYWVRQAPGKGLEWIGGISPSSGGTTFADAFEGKATLSVDKSKNTLYLQMNSLRAEDTAVYYCTRDAYGDWYFDVWGQGT", "IC50 (read off the curve)": 0.09}
{"binder": "h7H5.v2 displayed on phage as a monovalent Fab (Fab, V domains shown, also called humanized 7H5.v2; parental clone) VH: EVQLVESGGGLVQPGGSLRLSCAASGYTFTDYYLYWVRQAPGKGLEWIGGISPSSGGTTFADAFEGKATLSVDKSKNTAYLQMNSLRAEDTAVYYCTRDAYGDWYFDVWGQGT VL: DIQMTQSPSSLSASVGDRVTITCKASQSVGSDVAWYQQKPGKAPKTLIYSTSYRYSGVPSRFSGSGSGTDFTLTISSLQPEDFATYYCQQYSSYPFTFGQGTKVEIKR", "IC50 (read off the curve)": "~0.06"}
{"binder": "N28S(L1)+N92S(L3)+N54S/N60A/N62A/N65S(H2) (Fab, part only; not given: VH end, constant domains, phage fusion, V domains shown, not shown: another chain or arm of the molecule; large carriers) VL: DIQMTQSPSSLSASVGDRVTITCKASQSVGSDVAWYQQKPGKAPKTLIYSTSYRYSGVPSRFSGSGSGTDFTLTISSLQPEDFATYYCQQYSSYPFTFGQGTKVEIK VH: EVQLVESGGGLVQPGGSLRLSCAASGYTFTDYYLYWVRQAPGKGLEWIGGISPSSGGTTFADAFESKATLSVDKSKNTAYLQMNSLRAEDTAVYYCTRDAYGDWYFDVWGQGT", "IC50 (read off the curve)": 0.04}
{"binder": "HC:G49S (Fab, part only; not given: VH end, constant domains, phage fusion, V domains shown, not shown: another chain or arm of the molecule; large carriers) VL: DIQMTQSPSSLSASVGDRVTITCKASQSVGSDVAWYQQKPGKAPKTLIYSTSYRYSGVPSRFSGSGSGTDFTLTISSLQPEDFATYYCQQYSSYPFTFGQGTKVEIK VH: EVQLVESGGGLVQPGGSLRLSCAASGYTFTDYYLYWVRQAPGKGLEWISGISPSSGGTTFADAFEGKATLSVDKSKNTAYLQMNSLRAEDTAVYYCTRDAYGDWYFDVWGQGT", "IC50 (read off the curve)": 0.07}
{"binder": "h7H5.v2 framework modification clone, heavy chain I48V, displayed on phage as a monovalent Fab (Fab, name in Kabat numbering, V domains shown, Single mutation in h7H5.v2 made by Kunkel mutagenesis; monovalent Fab on phage; also called heavy chain position 48 (I48V)) VH: EVQLVESGGGLVQPGGSLRLSCAASGYTFTDYYLYWVRQAPGKGLEWVGGISPSSGGTTFADAFEGKATLSVDKSKNTAYLQMNSLRAEDTAVYYCTRDAYGDWYFDVWGQGT VL: DIQMTQSPSSLSASVGDRVTITCKASQSVGSDVAWYQQKPGKAPKTLIYSTSYRYSGVPSRFSGSGSGTDFTLTISSLQPEDFATYYCQQYSSYPFTFGQGTKVEIKR", "binding result": "binds"}
{"binder": "h7H5.v2 framework modification clone, heavy chain T30S, displayed on phage as a monovalent Fab (Fab, name in Kabat numbering, V domains shown, Single mutation in h7H5.v2 made by Kunkel mutagenesis; monovalent Fab on phage; also called heavy chain position 30 (T30S)) VH: EVQLVESGGGLVQPGGSLRLSCAASGYTFSDYYLYWVRQAPGKGLEWIGGISPSSGGTTFADAFEGKATLSVDKSKNTAYLQMNSLRAEDTAVYYCTRDAYGDWYFDVWGQGT VL: DIQMTQSPSSLSASVGDRVTITCKASQSVGSDVAWYQQKPGKAPKTLIYSTSYRYSGVPSRFSGSGSGTDFTLTISSLQPEDFATYYCQQYSSYPFTFGQGTKVEIKR", "binding result": "binds"}
{"binder": "h7H5.v2 framework modification clone, light chain T46L, displayed on phage as a monovalent Fab (Fab, name in Kabat numbering, V domains shown, Single mutation in h7H5.v2 made by Kunkel mutagenesis; monovalent Fab on phage; also called light chain position 46 (T46L)) VH: EVQLVESGGGLVQPGGSLRLSCAASGYTFTDYYLYWVRQAPGKGLEWIGGISPSSGGTTFADAFEGKATLSVDKSKNTAYLQMNSLRAEDTAVYYCTRDAYGDWYFDVWGQGT VL: DIQMTQSPSSLSASVGDRVTITCKASQSVGSDVAWYQQKPGKAPKLLIYSTSYRYSGVPSRFSGSGSGTDFTLTISSLQPEDFATYYCQQYSSYPFTFGQGTKVEIKR", "binding result": "binds"}
{"molecular_target": "T1, recombinant human integrin α5β1 (R&D)", "test": "phage competition ELISA IC50 of the Fab-phage against human integrin α5β1, relative to parental h7H5.v1; down arrow = loss, up arrow = improvement of binding affinity", "experimental": "Substitutions with other resides at various positions was achieved by Kunkel mutagenesis using a separate oligonucleotide for each position. […] The IC50 values for binding affinity were determined by phage competition ELISA in FIG. 6. Two variants, h7H5.v2 and h7H5.v3 as indicated were selected to include glycine substitution at position 65 of CDR-H2, cloned into hIgG1 vector, and evaluated binding affinities using BIAcore instrument.\nas §1", "units": {"Relative Fold to h7H5.v1": "fold"}}
{"binder": "CDR-L1:N28A (Fab, part only; not given: VH end, constant domains, phage fusion, V domains shown, not shown: another chain or arm of the molecule; large carriers) VL: DIQMTQSPSSLSASVGDRVTITCKASQAVGSDVAWYQQKPGKAPKTLIYSTSYRYSGVPSRFSGSGSGTDFTLTISSLQPEDFATYYCQQYNSYPFTFGQGTKVEIK VH: EVQLVESGGGLVQPGGSLRLSCAASGYTFTDYYLYWVRQAPGKGLEWIGGISPSNGGTTFNDNFENKATLSVDKSKNTAYLQMNSLRAEDTAVYYCTRDAYGDWYFDVWGQGT", "Relative Fold to h7H5.v1": 2.1}
